Target: T1, GST-tagged IRF3 (human, UniProt Q14653 1-427)
T1 construct: also called GST-IRF3
T1 sequence (looked up): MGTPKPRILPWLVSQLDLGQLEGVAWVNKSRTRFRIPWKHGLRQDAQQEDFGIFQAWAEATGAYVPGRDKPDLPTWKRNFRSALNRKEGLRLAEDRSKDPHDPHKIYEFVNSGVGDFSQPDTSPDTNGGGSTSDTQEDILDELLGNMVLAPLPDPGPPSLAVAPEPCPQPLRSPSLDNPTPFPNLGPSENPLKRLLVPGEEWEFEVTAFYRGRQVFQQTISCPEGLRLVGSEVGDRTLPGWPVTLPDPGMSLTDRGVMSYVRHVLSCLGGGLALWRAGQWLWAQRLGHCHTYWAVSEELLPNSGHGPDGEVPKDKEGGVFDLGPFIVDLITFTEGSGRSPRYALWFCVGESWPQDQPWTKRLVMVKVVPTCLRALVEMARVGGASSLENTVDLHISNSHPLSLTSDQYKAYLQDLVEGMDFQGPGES
Experiment: pull-down
Settings: both partners purified

- binding result: binds
B1: His-tagged EGLN1 (enzyme, human, UniProt Q9GZT9 1-426, looked up)
chain: MANDSGGPGGPSPSERDRQYCELCGKMENLLRCSRCRSSFYCCKEHQRQDWKKHKLVCQGSEGALGHGVGPHQHSGPAPPAAVPPPRAGAREPRKAAARRDNASGDAAKGKVKAKPPADPAAAASPCRAAAGGQGSAVAAEAEPGKEEPPARSSLFQEKANLYPPSNTPGDALSPGGGLRPNGQTKPLPALKLALEYIVPCMNKHGICVVDDFLGKETGQQIGDEVRALHDTGKFTDGQLVSQKSDSSKDIRGDKITWIEGKEPGCETIGLLMSSMDDLIRHCNGKLGSYKINGRTKAMVACYPGNGTGYVRHVDNPNGDGRCVTCIYYLNKDWDAKVSGGILRIFPEGKAQFADIEPKFDRLLFFWSDRRNPHEVQPAYATRYAITVWYFDADERARAKVKYLTGEKGVRVELNKPSDSVGKDVF
notes: also called His-EGLN1
